Reference: patent US6767991 (Boehringer Ingelheim, dated 2004)
*1 amine or outer side, *2 acyl side, *3 side chain or, on linkers, in order; H or OH if unused. Primed or numbered codes have the meaning given here. Where no end group is shown, it is not given here. [ ]: non-standard residue; d: D form. Pro((4-tert-butyl-phenyl)-methoxy) = Pro(4-R13), R13 = (4-tert-butyl-phenyl)-methoxy; Hyp(4-Bn) = 4(R)-benzyloxyproline, O=C([C@@H]1C[C@@H](OCc2ccccc2)CN1[*:1])[*:2]; Pro(1-NpCH2O)″ = Pro(4-R13), R13 = naphthalen-1-ylmethoxy; Pro(2-NpCH2O)″ = Pro(4-R13), R13 = naphthalen-2-ylmethoxy; Glutaryl = O=C(CCCC(=O)[*:2])[*:1]; Pro(4-OBn) = Pro(4-R13), R13 = OBn; Pro(O-Bn) = Pro(4-R13), R13 = O-Bn; NMeI = CC[C@H](C)[C@H](NC)C(=O)O; Pro(Bn) = Pro(4-R13), R13 = Bn; AllylGly = C=CC[C@H](N)C(=O)O; Chg = N[C@H](C(=O)O)C1CCCCC1; Suc = O=C(CCC(=O)[*:2])[*:1]; Tle = CC(C)(C)[C@H](N)C(=O)O; code B = not defined here; Ac5c = NC1(C(=O)O)CCCC1; Acca = not defined here; Nva = CCC[C@H](N)C(=O)O; Abu = CC[C@H](N)C(=O)O; Acc = not defined here; Ac3c = NC1(C(=O)O)CC1

The binders below were run against T1, recombinant NS3 protease with the NS4A peptide cofactor … (molar ratio enzyme:cofactor 1:100) (hepatitis C virus genotype 1b) (assay: cell-based or functional assay).

Row | Binder | IC50
1 | Ac-DIV[Pro(4-(1-NpCH2O))][Nva] [Compound 219 (Table 2): Ac-Asp-Ile-Val-Pro(1-NpCH2O)-Nva] | 2.3 µM
2 | Ac-DDIV[Pro((4-tert-butyl-phenyl)-methoxy)][Nva] [Compound 209 (Table 2): Ac-Asp-Asp-Ile-Val-Pro((4-tert-butyl-phenyl)-methoxy)-Nva] | 2.6 µM
3 | {code B}-IV[Pro(4-(1-NpCH2O))][Nva] (reading uncertain; also: further groups not given here, printed as B-Ile-Val-Pro(1-NpCH2O)-Nva) [Compound 224 (Table 2): B-Ile-Val-Pro(1-NpCH2O)-Nva, B drawn] | 56 µM
4 | Ac-D[dE]IV[Pro(4-OBn)]C [Compound 260 (Table 2): Ac-Asp-D-Glu-Ile-Val-Pro(O-Bn)-Cys] | 0.18 µM
5 | Suc-IV[Pro(4-(1-NpCH2O))][Nva] [Compound 221 (Table 2): DAD-Ile-Val-Pro(1-NpCH2O)-Nva] | 22 µM
6 | Suc-[NMeI]V[Pro(4-(1-NpCH2O))][Nva] [Compound 220 (Table 2): DAD-N(Me)Ile-Val-Pro(1-NpCH2O)-Nva] | 31 µM
7 | Ac-IVP[Nva] (not fully specified (residue 3); printed as Ac-Ile-Val-Pro(1-NpCH2O)-Nva) [Compound 225 (Table 2): Ac-Ile-Val-Pro(1-NpCH2O)-Nva] | 45 µM
8 | Ac-DDIVP[Nva] [Compound 273 (Table 2): Ac-Asp-Asp-Ile-Val-Pro(R13 = H)-Nva] | 17.5 µM
9 | Ac-DDIV[Pro(4-(Ph(CH2)3))][Nva] [Compound 230 (Table 2): Ac-Asp-Asp-Ile-Val-Pro(Ph(CH2)3)-Nva] | 3.3 µM
10 | Glutaryl-IVP[Ac3c] (not fully specified (residue 3); printed as DAE-Ile-Val-Pro(1-NpCH2O)-Acca) [Compound 237 (Table 2): DAE-Ile-Val-Pro(1-NpCH2O)-Acca] | 5.5 µM
11 | Ac-[Chg]VPC (not fully specified (residue 3); printed as Ac-Chg-Val-Pro(O-Bn)-Cys) [Compound 261 (Table 2): Ac-Chg-Val-Pro(O-Bn)-Cys] | 28 µM
12 | {code B}-IV[Pro(4-(1-NpCH2O))][Nva] (reading uncertain; also: further groups not given here, printed as B-Ile-Val-Pro(1-NpCH2O)-Nva) [Compound 223 (Table 2): B-Ile-Val-Pro(1-NpCH2O)-Nva, B drawn] | 51 µM
13 | Ac-DDIV[Pro(4-(Ph(CH2)3))][Nva] [Compound 217 (Table 2): Ac-Asp-Asp-Ile-Val-Pro(Ph(CH2)3)-Nva] | 3 µM
14 | Ac-DDIV[Pro(1-NpCH2O)″][Nva] [Compound 207 (Table 2): Ac-Asp-Asp-Ile-Val-Pro(1-NpCH2O)-Nva] | 0.39 µM
15 | Ac-D[dV]IVPC [Compound 274 (Table 2): Ac-Asp-D-Val-Ile-Val-Pro(R13 = H)-Cys] | 7.6 µM
16 | Ac-IVP[Ac3c] (not fully specified (residue 3); printed as Ac-Ile-Val-Pro(1-NpCH2O)-Acca) [Compound 262 (Table 2): Ac-Ile-Val-Pro(1-NpCH2O)-Acca] | 40 µM
17 | Ac-DDIV[Pro(2-NpCH2O)″][Nva] [Compound 208 (Table 2): Ac-Asp-Asp-Ile-Val-Pro(2-NpCH2O)-Nva] | 0.71 µM
18 | Ac-DDIV[Pro(O-Bn)][Nva] [Compound 201 (Table 2): Ac-Asp-Asp-Ile-Val-Pro(O-Bn)-Nva] | 7.2 µM
19 | Ac-DDIV[Pro(Bn)][Nva] [Compound 216 (Table 2): Ac-Asp-Asp-Ile-Val-Pro(Bn)-Nva] | 60 µM
20 | Glutaryl-IV[Pro(4-(1-NpCH2O))][Nva] [Compound 222 (Table 2): DAE-Ile-Val-Pro(1-NpCH2O)-Nva] | 20 µM

Target: T1, recombinant NS3 protease with the NS4A …
Assay: cell-based or functional assay
Remark: another data set of the same source

Row | Binder | IC50
21 | Ac-[Chg]VX[Acc] (not fully specified (residue 3); printed as Ac-Chg-Val-W-Acc; also: further groups not given here) [Compound 304 (Table 3): Ac-Chg-Val-W-Acc, W drawn] | 1.1 µM

Target: T1, recombinant NS3 protease with the NS4A …
Assay: cell-based or functional assay
Remark: another data set of the same source

Row | Binder | IC50
22 | Ac-DDIVP[Ac3c] [Compound 126 (Table 1): Ac-Asp-Asp-Ile-Val-Pro-Acca] | 45 µM
23 | Ac-D[dD]IVPC [Compound 104 (Table 1): Ac-Asp-D-Asp-Ile-Val-Pro-Cys] | 8.5 µM
24 | Ac-DDIVPC [Compound 101 (Table 1): Ac-Asp-Asp-Ile-Val-Pro-Cys] | 46 µM
25 | Ac-D[dE]IVPC [Compound 105 (Table 1): Ac-Asp-D-Glu-Ile-Val-Pro-Cys] | 1.5 µM
26 | Ac-DDIV[Hyp(4-Bn)]C [Compound 121 (Table 1): Ac-Asp-Asp-Ile-Val-Hyp(4-Bn)-Cys] | 1.7 µM
27 | Ac-D[Tle]IVPC [Compound 108 (Table 1): Ac-Asp-Tbg-Ile-Val-Pro-Cys] | 31 µM
28 | Ac-DD[Tle]VPC [Compound 111 (Table 1): Ac-Asp-Asp-Tbg-Val-Pro-Cys] | 79 µM
29 | Ac-DDIVP[Ac5c] [Compound 125 (Table 1): Ac-Asp-Asp-Ile-Val-Pro-Acpe] | 210 µM
30 | Ac-DDIVIC [Compound 119 (Table 1): Ac-Asp-Asp-Ile-Val-Ile-Cys] | 90 µM
31 | Suc-DIVPC [Compound 103 (Table 1): DAD-Asp-Ile-Val-Pro-Cys] | 26 µM
32 | Ac-DE[Chg]V[Glu(OBn)][Acca] (reading uncertain; also: printed as Ac-Asp-Glu-Chg-Val-Glu(OBn)-Acca) [Compound 133 (Table 1): Ac-Asp-Glu-Chg-Val-Glu(OBn)-Acca] | 39 µM
33 | Ac-EDIVPC [Compound 102 (Table 1): Ac-Glu-Asp-Ile-Val-Pro-Cys] | 59 µM
34 | Suc-DIVP[Nva] [Compound 130 (Table 1): DAD-Asp-Ile-Val-Pro-Nva] | 123 µM
35 | Ac-DE[Chg]EEC [Compound 131 (Table 1): Ac-Asp-Glu-Chg-Glu-Glu-Cys] | 24 µM
36 | Ac-DDIVP[AllylGly] [Compound 124 (Table 1): Ac-Asp-Asp-Ile-Val-Pro-AlGly] | 210 µM
37 | Ac-DDIVP[Abu] [Compound 122 (Table 1): Ac-Asp-Asp-Ile-Val-Pro-Abu] | 315 µM

Target: T1, recombinant NS3 protease with the NS4A …
Assay: cell-based or functional assay
Remark: another data set of the same source

Row | Binder | IC50
38 | {HOOC‑CH2‑N(Me)‑C(O)‑CH2‑CH(cyclohexyl)‑C(O)}-Val-[Pro(4-(1-NpCH2O))]-[Ac3c] [Compound 409 (Table 4): B HOOC-CH2-N(Me)-C(O)-; R4 cyclohexyl; P3 Val; R13 1-NpCH2O; P1 Acca] | 24 µM
39 | {EtOOC‑CH‑N(Me)2‑C(O)‑CH2‑CH(cyclohexyl)‑C(O)}-Val-[Pro(4-(1-NpCH2O))]-[Ac3c] [Compound 410 (Table 4): B EtOOC-CH-N(Me)2-C(O)-; R4 cyclohexyl; P3 Val; R13 1-NpCH2O; P1 Acca] | 32 µM
40 | {(HOOC-(CH2)2)2‑NC(O)‑CH2‑CH(cyclohexyl)‑C(O)}-Val-[Pro(4-(1-NpCH2O))]-[Ac3c] [Compound 413 (Table 4): B [HOOC-(CH2)2]2-NC(O)-; R4 cyclohexyl; P3 Val; R13 1-NpCH2O; P1 Acca] | 0.12 µM
41 | {MeOOC‑CH2‑CH2‑N(Me)c(O)‑CH2‑CH(cyclohexyl)‑C(O)}-Val-[Pro(4-(1-NpCH2O))]-[Ac3c] [Compound 406 (Table 4): B MeOOC-CH2-CH2-N(Me)c(O)-; R4 cyclohexyl; P3 Val; R13 1-NpCH2O; P1 Acca] | 25 µM
42 | {(HOOC-(CH2)2)2‑NH‑CH2‑CH2‑CH(cyclohexyl)‑C(O)}-Val-[Pro(4-(1-NpCH2O))]-[Ac3c] [Compound 411 (Table 4): B [HOOC-(CH2)2]2-NH-CH2-; R4 cyclohexyl; P3 Val; R13 1-NpCH2O; P1 Acca] | 0.36 µM
43 | {MeOOC‑(CH2)2‑N(Me)2‑C(O)‑CH2‑CH(cyclohexyl)‑C(O)}-Val-[Pro(4-(1-NpCH2O))]-[Ac3c] [Compound 408 (Table 4): B MeOOC-(CH2)2-N(Me)2-C(O)-; R4 cyclohexyl; P3 Val; R13 1-NpCH2O; P1 Acca] | 11 µM
44 | {HOOC‑CH2CH2‑N(Me)C(O)‑CH2‑CH(cyclohexyl)‑C(O)}-Val-[Pro(4-(1-NpCH2O))]-[Ac3c] [Compound 405 (Table 4): B HOOC-CH2CH2-N(Me)C(O)-; R4 cyclohexyl; P3 Val; R13 1-NpCH2O; P1 Acca] | 1.6 µM
45 | {(HOOC-CH2)2‑NC(O)‑CH2‑CH(cyclohexyl)‑C(O)}-Val-[Pro(4-(1-NpCH2O))]-[Ac3c] [Compound 412 (Table 4): B [HOOC-CH2]2-NC(O)-; R4 cyclohexyl; P3 Val; R13 1-NpCH2O; P1 Acca] | 0.8 µM
46 | {HOOC‑CH2CH2‑N(Me)2‑C(O)‑CH2‑CH(cyclohexyl)‑C(O)}-Val-[Pro(4-(1-NpCH2O))]-[Ac3c] [Compound 407 (Table 4): B HOOC-CH2CH2-N(Me)2-C(O)-; R4 cyclohexyl; P3 Val; R13 1-NpCH2O; P1 Acca] | 1.5 µM
